This is an account of results in PMC5908803, “Cryo-EM structure of the RC-LH core complex from an early branching photosynthetic prokaryote” (Nature Communications, 2018).

The data set concerns the molecule itself. The experiment in a line: cryo-EM structure; single-particle cryo-EM of the rcRC-LH complex purified whole from native membranes, 3 mg/mL in 0.02% DDM, 150 mM NaCl, 50 mM Tris-HCl pH 8.0; 4.1 Å (subunit X helix seen after low-pass filter to 6 Å).

B1: LHαβ heterodimer of Roseiflexus castenholzii (complex)
chain 1: MKDRPFEFRTSVVVSTLLGLVMALLIHFVVLSSGAFNWLRAP
chain 2: MTDKPQNDLVPDQWKPLFNNAQWLVHDIVVKTIYGGLIIAVIAHVLCWAWTPWIR
notes: α subunit of the LH antenna, Roseiflexus castenholzii, encoded by puf A; β subunit of the LH antenna, Roseiflexus castenholzii, encoded by puf B; Each heterodimer holds two B880, one B800 and one keto-γ-carotene; 15 of them form the open elliptical LH ring; also called LHαβ subunit
The term stoichiometry N denotes a count of units in the complex or per binding partner. Turning to B1, the “stoichiometry N” value is 15.
